The values that follow come from patent US20240209104A1.

Experiment [1] addresses OX40 on OX40 over-expressed cells (UniProt P43489). The experiment is described as follows: flow cytometry, 1 µg/ml isotype control on OX40 over-expressed cells (PBS: 1388).
Experiment [2] shares this target. The experiment is described as follows: flow cytometry, 1 µg/ml positive reference on OX40 over-expressed cells. (In flow cytometry, cells or beads pass a laser one at a time.)

Chain of OX40 on OX40 over-expressed cells (P43489 29-277): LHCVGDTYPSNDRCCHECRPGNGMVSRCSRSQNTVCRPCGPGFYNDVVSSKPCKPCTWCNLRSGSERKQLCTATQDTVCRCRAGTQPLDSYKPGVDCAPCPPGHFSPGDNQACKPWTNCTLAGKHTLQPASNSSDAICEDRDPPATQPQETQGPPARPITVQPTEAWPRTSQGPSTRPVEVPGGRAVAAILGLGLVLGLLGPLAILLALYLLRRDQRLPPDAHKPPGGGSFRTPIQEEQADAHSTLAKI

The substance “IgG2a isotype control (clone MG2a-53, Biogene) (antibody)” yielded a Y586 channel PE fluorescence value in experiment [1] of 1830.
Regarding “anti-OX40 antibody (clone ACT35, Biogene)”, in experiment [2], the Y586 channel PE fluorescence value is 210000.
